Data: patent US12427210B2, “Compounds comprising a fibroblast activation protein ligand and use thereof” (priority 2019, dated 2025)

Molecular target: T1, DPP3 (Homo sapiens (Human)) (UniProt Q9NY33)
T1 sequence: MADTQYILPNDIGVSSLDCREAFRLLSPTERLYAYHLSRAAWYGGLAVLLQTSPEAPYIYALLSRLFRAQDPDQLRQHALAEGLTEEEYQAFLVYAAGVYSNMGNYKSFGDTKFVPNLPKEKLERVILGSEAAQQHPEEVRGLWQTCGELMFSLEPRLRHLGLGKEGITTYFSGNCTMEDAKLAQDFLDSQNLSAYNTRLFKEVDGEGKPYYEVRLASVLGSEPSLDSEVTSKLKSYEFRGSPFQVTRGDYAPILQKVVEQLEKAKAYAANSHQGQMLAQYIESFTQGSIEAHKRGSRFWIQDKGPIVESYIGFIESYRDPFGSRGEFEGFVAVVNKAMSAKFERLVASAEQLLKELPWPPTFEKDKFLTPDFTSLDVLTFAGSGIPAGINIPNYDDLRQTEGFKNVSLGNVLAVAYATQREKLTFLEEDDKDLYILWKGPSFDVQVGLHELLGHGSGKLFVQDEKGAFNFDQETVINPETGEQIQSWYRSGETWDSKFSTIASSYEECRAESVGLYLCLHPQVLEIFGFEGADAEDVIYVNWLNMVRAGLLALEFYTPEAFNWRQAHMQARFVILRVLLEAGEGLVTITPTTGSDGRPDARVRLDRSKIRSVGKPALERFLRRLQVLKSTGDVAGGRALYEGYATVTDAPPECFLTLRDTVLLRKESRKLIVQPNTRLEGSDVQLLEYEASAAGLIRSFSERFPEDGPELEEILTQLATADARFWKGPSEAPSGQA

## Hex-[Cys(tMeBn(DOTA-AET))-Pro-Pro-Thr-Gln-Phe-Cys]-OH (3BP-3554) (peptide)
  Percentage inhibition (%) (% inhibition at 10 µM): -1
